Test results from PMC9196870, “Crystal Structure of an Intramolecular Mesaconyl-Coenzyme A Transferase From the 3-Hydroxypropionic Acid Cycle of Roseiflexus castenholzii” (Frontiers in Microbiology, 2022).

Target: the molecule itself
Assay: SEC; gel filtration, Superdex 200 10/300 GL, 25 mM Tris-Cl pH 8.0, 150 mM NaCl, 0.5 mL/min

B1: Mesaconyl-CoA C1-C4 CoA transferase (MCT) from Roseiflexus castenholzii (enzyme)
chain: MNGILSGMRIVEGSAFVAAPLGGMTLAQLGADVIRFDPIGGGLDYKRWPVTLDGKHSLFWAGLNKGKRSIAIDIRHPRGQELLTQLICAPGDEAGLFITNFPARGWLSYEALKAHRADLIMVNLLGRRDGGSEVDYTVNPQLGLPFMTGPFTSPEVVNHVLPAWDIVTGQMIALGLLAAERHRRRTGEGQLVKLALKDVGLAMIGHLGMIAEVMINDADRPKQGNYLYGAFGRDFETLDGKRVMVVGLTDLQWKALGKATGLTDAFNALGARLGLDMNDEGNRFRARREIAALLEPWFHARTFAEVRRVFEEHRVTWGPYRTVREAIAQDPDCSTENPMFTMVEQPGIGTYLMPASPLDFSRMPRLPAQRAPRLGEHTDEILLEVLGLSDGEVGKLHDEGIVAGPEEE
stoichiometry N: 2
